Laboratory results taken from PMC9482650, “Quantitative fragmentomics allow affinity mapping of interactomes” (Nature Communications, 2022).

How the values were obtained:
Assay in all cases: holdup assay
Parameters in all cases: key: below the threshold = too weak to quantify, mostly under pKd 3.1 to 4
[1] = target: Inadl_4, Q8NI35
[2] = target: Inadl_1, Q8NI35
[3] = target: MAGI1_1, Q96QZ7
[4] = target: HTRA2, O43464
[5] = target: T1, APBA2_2, Q99767
T1 sequence (Q99767 654-744, limits assumed, looked up): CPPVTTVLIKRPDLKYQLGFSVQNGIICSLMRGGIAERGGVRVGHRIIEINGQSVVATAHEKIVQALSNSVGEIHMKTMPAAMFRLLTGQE

[6] = target: GRIP2_5, Q9C0E4
Sequence of GRIP2_5, Q9C0E4 (Q9C0E4 544-642): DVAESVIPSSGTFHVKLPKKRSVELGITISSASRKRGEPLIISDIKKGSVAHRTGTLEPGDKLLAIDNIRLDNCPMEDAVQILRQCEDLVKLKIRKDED

[7] = target: PICK1, Q9NRD5
Sequence of PICK1, Q9NRD5 (Q9NRD5 17-115): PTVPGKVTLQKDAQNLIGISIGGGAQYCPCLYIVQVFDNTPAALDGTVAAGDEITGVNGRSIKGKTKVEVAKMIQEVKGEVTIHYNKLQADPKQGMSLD

[8] = target: DLG1_3, Q12959
Sequence of DLG1_3, Q12959 (Q12959 457-571): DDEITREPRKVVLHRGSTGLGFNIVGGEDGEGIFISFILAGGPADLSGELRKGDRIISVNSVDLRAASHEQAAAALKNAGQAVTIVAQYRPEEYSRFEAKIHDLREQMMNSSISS

[9] = target: HTRA1, Q92743
Sequence of HTRA1, Q92743 (Q92743 360-477): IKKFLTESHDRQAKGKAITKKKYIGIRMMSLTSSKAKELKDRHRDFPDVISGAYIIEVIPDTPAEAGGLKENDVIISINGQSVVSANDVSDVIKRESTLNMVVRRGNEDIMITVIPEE

[10] = target: Inadl_9, Q8NI35
Sequence of Inadl_9, Q8NI35 (Q8NI35 1530-1615): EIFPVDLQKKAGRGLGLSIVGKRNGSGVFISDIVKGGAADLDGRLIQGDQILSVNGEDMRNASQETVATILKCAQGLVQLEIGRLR

[11] = target: GRID2IP_2, A4D2P6
Sequence of GRID2IP_2, A4D2P6 (A4D2P6 272-370): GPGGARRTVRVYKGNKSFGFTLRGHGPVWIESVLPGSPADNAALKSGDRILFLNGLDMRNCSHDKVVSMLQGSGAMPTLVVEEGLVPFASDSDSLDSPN

[12] = target: TJP1_3, Q07157
Sequence of TJP1_3, Q07157 (Q07157 416-512): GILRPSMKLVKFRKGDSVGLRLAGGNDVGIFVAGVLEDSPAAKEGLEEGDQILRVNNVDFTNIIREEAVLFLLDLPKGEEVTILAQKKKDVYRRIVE

[13] = target: T2, MPDZ_10, O75970
T2 sequence (O75970 1624-1722, limits assumed, looked up): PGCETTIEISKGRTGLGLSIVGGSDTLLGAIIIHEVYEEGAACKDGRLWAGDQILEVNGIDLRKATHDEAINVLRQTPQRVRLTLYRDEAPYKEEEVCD

[14] = target: MAST1, Q9Y2H9
Sequence of MAST1, Q9Y2H9 (Q9Y2H9 962-1065): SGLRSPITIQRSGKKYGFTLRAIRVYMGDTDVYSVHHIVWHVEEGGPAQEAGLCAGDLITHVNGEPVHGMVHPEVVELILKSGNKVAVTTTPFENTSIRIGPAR

[15] = target: T3, NHERF3_3, Q5T2W1
T3 sequence (Q5T2W1 238-333, limits assumed, looked up): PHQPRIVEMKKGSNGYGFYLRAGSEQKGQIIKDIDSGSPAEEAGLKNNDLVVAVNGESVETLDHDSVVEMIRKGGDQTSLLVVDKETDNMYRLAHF

[16] = target: T4, LNX2_3, Q8N448
T4 sequence (Q8N448 463-564, limits assumed, looked up): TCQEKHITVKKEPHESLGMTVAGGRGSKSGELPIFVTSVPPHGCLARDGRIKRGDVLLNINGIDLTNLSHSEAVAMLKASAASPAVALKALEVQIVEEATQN

[17] = target: T5, LNX2_2, Q8N448
T5 sequence (Q8N448 334-432, limits assumed, looked up): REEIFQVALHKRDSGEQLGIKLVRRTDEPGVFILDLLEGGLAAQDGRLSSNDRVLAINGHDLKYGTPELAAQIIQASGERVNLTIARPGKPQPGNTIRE

[18] = target: T6, HTRA3, P83110
T6 sequence (P83110 354-453, limits assumed, looked up): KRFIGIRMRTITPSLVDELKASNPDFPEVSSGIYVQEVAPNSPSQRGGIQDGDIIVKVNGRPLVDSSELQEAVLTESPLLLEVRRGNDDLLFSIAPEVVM

[19] = target: TJP1_2, Q07157
Sequence of TJP1_2, Q07157 (Q07157 181-274): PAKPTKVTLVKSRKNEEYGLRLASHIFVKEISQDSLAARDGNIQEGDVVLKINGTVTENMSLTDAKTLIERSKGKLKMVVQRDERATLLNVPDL

[20] = target: SNX27, Q96L92
[21] = target: T7, ARHGEF11, O15085
T7 sequence (O15085 42-136, limits assumed, looked up): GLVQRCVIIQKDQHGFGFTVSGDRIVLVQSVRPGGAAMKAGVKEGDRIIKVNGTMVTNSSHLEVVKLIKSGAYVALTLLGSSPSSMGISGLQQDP

[22] = target: T8, DFNB31_3, Q9P202
T8 sequence (Q9P202 811-907, limits assumed, looked up): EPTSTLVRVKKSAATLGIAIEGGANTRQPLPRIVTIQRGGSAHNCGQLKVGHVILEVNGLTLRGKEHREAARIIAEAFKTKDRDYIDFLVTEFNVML

[23] = target: MAGI3_2, Q5TCQ9
Sequence of MAGI3_2, Q5TCQ9 (Q5TCQ9 398-503): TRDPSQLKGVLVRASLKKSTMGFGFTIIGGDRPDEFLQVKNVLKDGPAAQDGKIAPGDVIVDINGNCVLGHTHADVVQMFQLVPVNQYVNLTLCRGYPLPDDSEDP

[24] = target: T9, DFNB31_2, Q9P202
T9 sequence (Q9P202 274-371, limits assumed, looked up): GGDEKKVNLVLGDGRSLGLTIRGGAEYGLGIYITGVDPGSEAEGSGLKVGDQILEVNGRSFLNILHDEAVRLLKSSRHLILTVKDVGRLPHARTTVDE

[25] = target: GORASP2, Q9H8Y8
[26] = target: IL16_3, Q14005
Sequence of IL16_3, Q14005 (Q14005 1107-1207): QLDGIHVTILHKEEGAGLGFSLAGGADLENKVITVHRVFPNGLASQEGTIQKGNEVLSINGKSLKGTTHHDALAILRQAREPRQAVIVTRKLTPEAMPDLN

[27] = target: GRIP2_4, Q9C0E4
Sequence of GRIP2_4, Q9C0E4 (Q9C0E4 446-548): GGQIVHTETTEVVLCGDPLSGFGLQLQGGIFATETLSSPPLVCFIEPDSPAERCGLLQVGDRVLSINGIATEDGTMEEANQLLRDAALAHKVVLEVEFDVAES

[28] = target: GOPC, Q9HD26
[29] = target: Inadl_5, Q8NI35
Sequence of Inadl_5, Q8NI35 (Q8NI35 673-780): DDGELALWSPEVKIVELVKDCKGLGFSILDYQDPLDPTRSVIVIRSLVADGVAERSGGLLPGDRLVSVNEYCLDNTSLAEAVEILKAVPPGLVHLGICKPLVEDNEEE

[30] = plain residues with an end cap or a label only (N-terminal biotin on a linker: none)
[31] = plain residues with an end cap or a label only (N-terminal biotin on a linker: ttds)
[32] = plain residues with an end cap or a label only (N-terminal biotin on a linker: ado-ado)

Sequence of Inadl_1, Q8NI35 (Q8NI35 113-229): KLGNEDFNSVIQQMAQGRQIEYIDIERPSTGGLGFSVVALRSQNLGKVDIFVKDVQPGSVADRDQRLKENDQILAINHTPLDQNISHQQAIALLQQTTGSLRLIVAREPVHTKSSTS
Sequence of Inadl_4, Q8NI35 (Q8NI35 547-651): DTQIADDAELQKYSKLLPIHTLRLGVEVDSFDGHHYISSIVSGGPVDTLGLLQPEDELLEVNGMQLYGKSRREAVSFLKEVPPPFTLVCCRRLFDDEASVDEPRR
Sequence of MAGI1_1, Q96QZ7 (Q96QZ7 1-106): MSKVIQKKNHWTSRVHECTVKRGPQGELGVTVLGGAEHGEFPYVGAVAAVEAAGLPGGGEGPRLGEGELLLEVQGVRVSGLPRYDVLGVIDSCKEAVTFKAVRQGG
Sequence of HTRA2, O43464 (O43464 355-458): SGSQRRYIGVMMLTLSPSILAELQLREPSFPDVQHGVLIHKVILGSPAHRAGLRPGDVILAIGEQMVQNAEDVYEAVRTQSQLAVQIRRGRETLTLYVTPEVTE

B1: MERS-E, K9N5R3 (peptide)
chain: DSKPPLPPDEWV
pKd [1, 30]: below the threshold
pKd [2, 30]: 3.61
pKd [3, 30]: below the threshold
pKd [4, 30]: 4.2
pKd [5, 30]: below the threshold
pKd [6, 30]: below the threshold
pKd [7, 30]: below the threshold
pKd [8, 30]: 3.5
pKd [9, 30]: 4.34
pKd [10, 30]: 3.57
pKd [11, 30]: 3.53
pKd [12, 30]: 3.56
pKd [13, 30]: below the threshold
pKd [14, 30]: 3.91
pKd [15, 30]: below the threshold
pKd [16, 30]: below the threshold
pKd [17, 30]: 4.44
pKd [18, 30]: 5.66
pKd [19, 30]: 4.16
pKd [20, 30]: 4.56
pKd [21, 30]: 3.91
pKd [22, 30]: below the threshold
pKd [23, 30]: below the threshold
pKd [24, 30]: below the threshold
pKd [25, 30]: 4.57
pKd [26, 30]: below the threshold
pKd [27, 30]: below the threshold
pKd [28, 30]: 3.92
pKd [29, 30]: 3.74

B2: ASIC3, Q9UHC3 (peptide)
chain: HRTCYLVTQL
pKd [1, 31]: below the threshold
pKd [2, 31]: 3.52
pKd [3, 31]: 3.5
pKd [4, 31]: 3.91
pKd [5, 31]: below the threshold
pKd [6, 31]: 4.31
pKd [7, 31]: 3.63
pKd [8, 31]: 4.56
pKd [9, 31]: 4.39
pKd [10, 31]: below the threshold
pKd [11, 31]: 4.56
pKd [12, 31]: below the threshold
pKd [13, 31]: 3.91
pKd [14, 31]: 4
pKd [15, 31]: 3.52
pKd [16, 31]: below the threshold
pKd [17, 31]: below the threshold
pKd [18, 31]: 3.43
pKd [19, 31]: below the threshold
pKd [20, 31]: 5.11
pKd [21, 31]: 4.83
pKd [22, 31]: 4.25
pKd [23, 31]: 4.3
pKd [24, 31]: below the threshold
pKd [25, 31]: 4.55
pKd [26, 31]: below the threshold
pKd [27, 31]: below the threshold
pKd [28, 31]: 4.79
pKd [29, 31]: below the threshold

B3: EPHA7, Q15375 (peptide)
chain: LHLHGTGIQV
pKd [1, 32]: below the threshold
pKd [2, 32]: below the threshold
pKd [3, 32]: 3.59
pKd [4, 32]: below the threshold
pKd [5, 32]: below the threshold
pKd [6, 32]: 3.55
pKd [7, 32]: 3.56
pKd [8, 32]: 3.69
pKd [9, 32]: 4.36
pKd [10, 32]: 4.37
pKd [11, 32]: below the threshold
pKd [12, 32]: below the threshold
pKd [13, 32]: below the threshold
pKd [14, 32]: below the threshold
pKd [15, 32]: below the threshold
pKd [16, 32]: 3.47
pKd [17, 32]: 5.03
pKd [18, 32]: 3.58
pKd [19, 32]: 4.43
pKd [20, 32]: 3.53
pKd [21, 32]: 4.51
pKd [22, 32]: 3.99
pKd [23, 32]: 3.55
pKd [24, 32]: below the threshold
pKd [25, 32]: 4.46
pKd [26, 32]: below the threshold
pKd [27, 32]: below the threshold
pKd [28, 32]: below the threshold
pKd [29, 32]: 4.04
